In a protein production outcome set (Wang et al. 2014):

Assay: label from the status in PepcDB records
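Note: failed if final PepcDB status was selected cloned or expressed and not failed if soluble or beyond.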

With “MKKSLVVCALSAAVLLSGCETVNTTSGGVVGVDRKQSMFSMVSSAEVNQSYAQSYQQTLGEASSQGVLDKTSANAKRLQVIANRLIAQAPTFRPDCAQWKWEVNLIKSDELNANCGPGGKIIFYSGLIEKLKLTDDEIAAVMGHEIAHALREHGREAMSKQYAVGAGKQIATLFGVPQETVALGDNGVNLLMTLPNSRENENEADLIGLELAARAGYNPNAAISLWNKMGQAAGGSAPPEFMSTHPASTSRIASLQAAIPKVMPLYQAAKKSLEHHHHHH” the protein production was “failed”.
For “MKKTLILGATPETNRYAYLAAERLKSHGHEFIPVGRKKGEVLGKTIINERPVIEGVDTVTLYINPQNQLSEYNYILSLKPKRVIFNPGTENEELEEILSENGIEPVIGCTLVMLSAGT”, the protein production was “failed”.
For “MKKTTLALSALALSLGLALSPLSATAAETSSATTAQQMPSLAPMLEKVMPSVVSINVEGSTTVNTPRMPRNFQQFFGDDSPFCQEGSPFQSSPFCQGGQGGNGGGQQQKFMALGSGVIIDADKGYVVTNNHVVDNATVIKVQLSDGRKFDAKMVGKDPRSDIALIQIQNPKNLTAIKMADSDALRVGDYTVAIGNPFGLGETVTSGIVSALGRSGLNAENYENFIQTDAAINRGNSGGALVNLNGELIGINTAILAPDGGNIGIGFAIPSNMVKNLTSQMVEYGQVKRGELGIMGTELNSELAKAMKVDAQRGAFVSQVLPNSSAAKAGIKAGDVITSLNGKPISSFAALRAQVGTMPVGSKLTLGLLRDGKQVNVNLELQQSSQNQVDSSSIFNGIEGAEMSNKGKDQGVVVNNVKTGTPAAQIGLKKGDVIIGANQQAVKNIAELRKVLDSKPSVLALNIQRGDSTIYLLMQ”, the protein production was “failed”.
With “MKKVIAGLAAASVVGVAVPGMDSAQAQVSNEALKEINGQTQTQTTVTETKTVETKSDLKYTVTADVLNVRSGAGTGHSVISKVKQGQVLQVIGQENGWFKVTVNGQTGYVSGDFVTTGGKTGTTVQQGTGTYTVNVSSLNVRTGPSTSHTVLGSVNKGKTVQVVSEVQDWFKINFNGGTGYVSKDFVTKGGSAVSNQTQQPTTNNNTTTVQTGGSYVVNTGALKVRTGPATYNAVIGGVTNGTVLNVTGAENGWYKINHNGRTGYVSADFVKFVKGGVNNVTNNVQQPVKDVQKPTTGGNTSSIAGFARSLNGSPYRTAGTTPAGFDCSGFIHYVLNQTGHKGARQTVAGYWSSKTKTSNPQPGDLVYFQNTYKSGPSHMGVYLGNGQFISAETDATGVRISSVSNSYWSKHLLGYTKAYLEHHHHHH” the protein production was “failed”.
In the case of “MKKVRFLLLAAMVAMFTGCQKEVAEQELDNNKPTPTGDTRIIIEGEGMIGPVTRSSDGKVEFEGGYATGAGLYNGDAQPKVAAHPDAGYEVNYFYGGPENELHRYDYAQSGSSTFDVKLKGEDHTFRCGFKEKKRNLTVNTGTGGSVSPAGTNSYRVEKAISITATPDSGYEFAGWTITEGDVTIENPGSPATTATLHNDNSTITANFKSGAELVFTVRASANKIVPMPVLGSGPYIIDYGDGTVAQEVDLRAPGYTQYPGSYHTYSADGEYTVTIKGPAATAFSFRGTRNSDLQYTNPCPAKSILKNTIDISCVTSLENAFSGMKSLESIKCDLFESCKGRVTTCANIFDQCTNLHTIYNGLFEGFDKCTDFSLAFHYTALNSIPANTFRGCSSAVKFNSTFSAIPNILSIPAGLFDDCVNAQEFASTFELLNISTVPERLFAKCVKATFFRGTFRQSHVTTVPGNVFENCRAIENVSSCFENCSWITSLPEMWNTSLYPKIKTYNAFAKNCNKASNYSAVPAAWK”, the protein production is reported as “failed”.
In the case of “MKKWRFLGIDDSFDDRKCCVVGCVTCGGYVEGFLYTEIDIDGLDATDKLISMVRRSKFREQIKCIFLPGITLGGFNLVDIQRVYRETKIPVVVVMRRKPDMEEFDSAMRNLENYELRRKIVEVAGEIHRIGDIYIQTAGLTPSEAEKLVKASLIKGNMPEPVRISHLVASAIIHGESR”, the protein production is reported as “not failed”.
In the case of “MKKYFLKCGYFLVCFCLPLIVFANPKTDNERFFIRLSQAPLAQTLEQLAFQQDVNLVIGDILENKISLKLNNIDMPRLLQIIAKSKHLTLNKDDGIYYLNGSQSGKGQVAGNLTTNEPHLVSHTVKLHFAKASELMKSLTTGSGSLLSPAGSITFDDRSNLLVIQDEPRSVQNIKKLIAEMDKPIEQIAIEARIVTITDESLKELGVRWGIFNPTENARRVAGSLTGNSFENIADNLNVNFATTTTPAGSIALQVAKINGRLLDLELSALERENNVEIIASPRLLTTNKKSASIKQGTEIPYIVSNTRNDTQSVEFREAVLGLEVTPHISKDNNILLDLLVSQNSPGSRVAYGQNEVVSIDKQEINTQVFAKDGETIVLGGVFHDTITKSEDKVPLLGDIPVIKRLFSKESERHQKRELVIFVTPHILKAGETLEALKQKSEGKKLEHHHHHH”, the protein production is reported as “failed”.
In the case of “MKLAASLNRLSPKRLFRTKSKASVSRSEPSSFSSNASSSSSDGSYGNLKQGPTATPISVLPQNSGDFYTELVQAFKLIDRDDDGVVSRGDLAALISRLSHEPPSQEEVSLMLREVDGGDGGCISLEDLASRVAGTSGEGSVETEELREVFEIFDVDRNGKISAEELHRVFGVIGDERCTLEECMRMIATVDGNGDGFVCFDDFCRMMVPAMNDHHH”, the protein production is reported as “failed”.
With “MKLAIVTACPGGQVTSVLAARLLRGAAERLGWETCVEANAGSRPEGELSAEQIAEADWVLLVGVEPLAAARFVGKPVYRARPAEALADPRAFLQRAAALASVEVAGDEAGLVAPEAGAAPRIVAVTACPTGVAHTFMAAEALQLAAGQLGFALQVETQGSVGARNPLDPADIAAADVVLLAADIDVDTARFAGKKIYRCGTGVALKQARATLERALAEGQVESAGAASAVVARDEKRGVYKHL” the protein production was “failed”.
In the case of “MKLAVISSIYKNDSLSKIKQSLQSLLNQENVTCDIYLYCDGPVSIDIVHFLDSFDQNSLYIFKQEQNRGLAHALNELLNIVLTKEYEYIARMDADDISMPERFVKQIAFMNSHPDIDCLGTWAIEIDDDGKEYFRKKMPITHEECLELFKKRDCMIHPTVMFRRSYFEKAGLYPEDTYFGEDTMMWAKGFKSGCKFANVPEYLFKFRLDSNFFERRRGWKHAKSIYTLRHRVNRMLGFGWKEDCYALLYAMAKLMPKSILDIIYKTVR”, the protein production is reported as “failed”.
With “MKLERFYRDTILLTMSNFATGILKFIFSVILSEKLGAEGVGLYQLIMPVYDLFCCLVCGGLNIAVSRKVAILSGKNDYSNVNSLIKISSLFCFIWSSLVAVILFFNSRFISNSFIKDMRSLYSLELICPALIFVTISAILKGYFYGISKAKVPAYIDILEKASRVGIVIAIINIFMLKSISKTVTAVYGVLSLGEFISLIALYIAFLIYRRNLRPVYSDRESSGQLIFDVFSVSIPLCINSFVSSLLAAASTLILPVRLVHAGFLHSEALSLIGKFSGMALIVTSFPVVIIVAMSTVLIPEISQNLNKRDYYSIEKRVTQVLKISFFLGTITMIIALSIPNLLGKLFFSRNDLGNYIAASALSVPVDYTSFATFSILSGLGKQNKLLINSLIVSIEQLILLYVLTGIRFINIYGYAITLFVTCLTAYILNMKEIRKVCYIRFSFVDMFIDTLLCILVYLILSILNNIVPNRFILPKTLFIIILGFVLFTFAITKIKDKLK” the protein production was “failed”.
In the case of “MKLFFTDGQFAVAGYSRPDVPFLCDAEMELVDAPNRYLRYIATVKGRTRAANTWRTYGAALYEFFAFLEANGLAWDRVDQSQIAAWRDTMLERGCARSTVNQRLRTVDAFYNWAKSNGMTHSIPFDRTDVWVAKPRGFLAHVDASGDRFEANSLTVQTHKVTPQFLHLDRAIRFLDALTPYRMRLMGYLALLTGMRREEVVSMDCRVLPNPAGRDSNKQIPMHLDPSITPTKGEKDRTVMLPYDLAVALYQYFTFERSRLLAKHRAKFGIETTLLFLSQTGDPLSVNGLNNAFRRVSQKTGIWCTPHMLRHTFGTYELMRMSRQKTQTQALLWVRDRMGHNSITTTEIYVHAADLVEHDDVDGYHLDICRALAHGNPTSKT”, the protein production is reported as “failed”.
For “MKLICYILLILLIPAIPVGAQTLSGGQVQVSNQSILISDNGQVMIGMDITLPAAMELSSNCVATLTPVLKTQDNSYNRILPAIWVYGRIRSIVQQRERSIPSDAYTILRRKNGTEQTVNYSARIPYEKWMNGAELELQAAIRGCADCQKEENSAFITRANLERYVVKPVVAFVSPAVEAVKNRAEEGRAYLDFPVNQMNIYPDYRRNPSELAAIKHTVDVVKNDVNTTITEIAIVGYASPEGRYAANARLAQGRAEALKSYVMNEYGFKADLFKVNSVPEDWAGLRAYVAKNDLPLKEEILSIIDKNESDFDVKEERIKALDGGKVYAALLQDCYPALRHSDYTVRYVVRGFDVEEAKQIIKLRPQQLSLQEMFLVAQTYEKGSDEFNEVFDVAVRMFPDDPTANINAAAIELQRGDLQQAVRYLDKADAQASATLNNRGVLKLLQGDLDSAENYFKQAQAKDSVEAGANLEEVTNKRKDEAIFVK”, the protein production was “failed”.
For “MKLIDLHVHSYHSDGVLAPAVLVAMAAERGLASLAIADHDAVDGIDEAVAEGVRLGVDVIPAVELSVELGRFSDLHILGYCIDHHDPAFRDKLAGFRSARDNRGKAILEKINRRLLHSRKAPLSYDEVLSMAGGAVGRPHIGRVLVDNGYARDMEDAFRRYLIPCNVPKRYMPAGEAIAEIRRIGGVSVLAHPPTITDDRRRLRQVVEQLAQLGLDGLEVFNNLCFKDDMLYLERLAEEFGLLMTGGSDFHGFEDDVELGRGRGGLAVAHSLAEKVKELAAQRKHSHA”, the protein production was “failed”.
For “MKLINKSIPSIRLSEFISEIEDCLAATFYGDTFWITTEISDVNKKPDKRWCYLKLIEKEGKNVTAEIGAVFWTPGYAYIEKFEKETKQLFKDGLEITCRVKVTFHKRWGLKLEIVEIDYAYTLGKLEAERQETLDRLVKENPDYVRLVGEQYYTFNKSLPLPAVVQRIALITAPESDGQRDFRQELGNNPYGYAFHVDEFVTQIQGDKAHEFIIGKLLLIEAQKEKYDVVAIVRGGGSQLDLKAFDAYDLAQRIASFPVPILTGIGHDRNTSIADLMARQEKTPTKVANVIIQRNFQFEQTVLILKERMVHTVDGLFTNAKNNLKEIKRFVKASNPLTILKKGFAIVKQDNVIITDPSAIDVGTEIQIQFDKETVQSTVTKKKKNGK”, the protein production was “failed”.
With “MKLINTTWTHQELVNNQLDNTDAFLVETYSAGNTDVVFTQAPKHYELLISNKHRAVKDNELEVIREFFLKRKIDKDIVLMDKLRTVHTDKLIEISFPTTV” the protein production was “not failed”.
In the case of “MKLKNEQQQSWLSLAFVWAGAMISVPGLIIGGTLVAGMPLWEALLTGFIGYGIIVILMILQGIQSSDLQEPSVKVASQVFGIQGSQKIISIILAIACLGWFGLQANVSGGAFTNFLKIYGIDLPVSLSSLIWGIIMLISALYGIKILKILNYFAVPVLVLVCLYGLVASLRNNGWAAVSQYTPQTAGSFMSGLSMTVGSFALGAVIAGDYSQYVSSRKDVVKAATLGILPTGLLMIGVGAVLTIASNTADITEVFMNLGFPVLGIIALILATWTTNAVNAFSGGLALINVFDIPKEKEKVAVGAAGAIGTLLAVVGILNYFTPIMSVLSAMVPPVAGVMIAAYWLINKGDRTKWQPTPGVNKLGVFSWLIGAAVGGIPVIMSFFPNAPQLPNQPLIGIVLSFVIYYFGAKRQQTNTESLEME”, the protein production is reported as “failed”.
For “MKLKNPLDMHLHLRDNQMLELIAPLSARDFCAAVIMPNLIPPLCNLEDLKAYKMRILKACKDENFTPLMTLFFKNYDEKFLYSAKDEIFGIKLYPAGITTNSNGGVSSFDIEYLKPTLEAMSDLNIPLLVHGETNDFVMDRESNFAKIYEKLAKHFPRLKIVMEHITTKTLCELLKDYENLYATITLHHLIITLDDVIGGKMNPHLFCKPIAKRYEDKEALCELAFSGYEKVMFGSDSAPHPKDTKECCGCAAGVFSAPVILPVLAELFKQNSSEENLQKFLSDNTCKIYDLKFKEDKILTLEEKEWQVPNVYEDKYNQVVPYMAGEILKFQLKH”, the protein production was “not failed”.
For “MKLLLLLIIALEISFTTIVSLNVALIILALIYLLGHRTRLRTLGWLLLIPLLPAIGLWSTQYINGSGDKTLMAWVLFTRIYAFVFTGATFTLTTDVLQLTDSLEQNWHLPAKFAYGVLAAYNLVPRIQHEVQVIRAAGLMRGQVLSFWSPQLYFKAILVSINWSQNLARAMRSHGFVEDAPRTHYRQIPLTKLDWTIVISGVLLLQVGAFVIPWR”, the protein production was “failed”.
